According to the Immune Epitope Database (IEDB):

Tests used:
[1] = target: HLA-A*30:01; assay: IEDB peptide-MHC binding, purified MHC/competitive/fluorescence; filed as Kd, often an IC50 or EC50 that approximates it; ≥ and ≤ were set here for values at or beyond the usual limits of such assays; conditions: source organism: Vaccinia virus Copenhagen
[2] = target: HLA-B*27:05; assay: as above; conditions: source organism: Vaccinia virus Copenhagen
[3] = target: HLA-B*48:01; assay: as above; conditions: source organism: Vaccinia virus Copenhagen
[4] = target: HLA-B*18:01; assay: as above; conditions: source organism: Vaccinia virus Copenhagen
[5] = target: HLA-A*01:01; assay: as above; conditions: source organism: Vaccinia virus Copenhagen
[6] = target: HLA-B*15:09; assay: IEDB peptide-MHC binding, purified MHC/direct/fluorescence; filed as Kd, often an IC50 or EC50 that approximates it; ≥ and ≤ were set here for values at or beyond the usual limits of such assays; conditions: source organism: Variola virus
[7] = target: HLA-B*07:02; assay: as above; conditions: source organism: Cowpox virus
[8] = target: HLA-A*69:01; assay: as above; conditions: source organism: Cowpox virus
[9] = target: HLA-B*15:17; assay: as above; conditions: source organism: Cowpox virus
[10] = target: HLA-B*39:01; assay: as above; conditions: source organism: Cowpox virus
[11] = target: HLA-B*40:01; assay: as above; conditions: source organism: Cowpox virus
[12] = target: HLA-B*15:01; assay: as above; conditions: source organism: Cowpox virus
[13] = target: HLA-A*26:03; assay: as above; conditions: source organism: Variola virus
[14] = target: HLA-B*58:01; assay: as above; conditions: source organism: Cowpox virus
[15] = target: HLA-A*68:02; assay: as above; conditions: source organism: Cowpox virus
[16] = target: HLA-B*57:01; assay: as above; conditions: source organism: Cowpox virus
[17] = target: HLA-B*46:01; assay: as above; conditions: source organism: Cowpox virus
[18] = target: HLA-B*08:03; assay: as above; conditions: source organism: Variola virus
[19] = target: HLA-A*02:01; assay: as above; conditions: source organism: Cowpox virus
[20] = target: HLA-B*38:01; assay: as above; conditions: source organism: Variola virus
[21] = target: HLA-B*51:01; assay: IEDB peptide-MHC binding, purified MHC/competitive/fluorescence; filed as Kd, often an IC50 or EC50 that approximates it; ≥ and ≤ were set here for values at or beyond the usual limits of such assays; conditions: source organism: Yersinia pestis CO92
[22] = target: HLA-B*83:01; assay: as above; conditions: source organism: Yersinia pestis CO92
[23] = target: HLA-C*14:02; assay: as above; conditions: source organism: Yersinia pestis CO92
[24] = target: HLA-A*32:07; assay: as above; conditions: source organism: Yersinia pestis CO92
[25] = target: HLA-B*45:06; assay: as above; conditions: source organism: Yersinia pestis CO92
[26] = target: HLA-B*27:20; assay: as above; conditions: source organism: Yersinia pestis CO92
[27] = target: HLA-B*15:42; assay: as above; conditions: source organism: Yersinia pestis CO92
[28] = target: HLA-A*02:01; assay: as above; conditions: source organism: Yersinia pestis CO92
[29] = target: HLA-C*15:02; assay: IEDB peptide-MHC binding, purified MHC/direct/fluorescence; filed as Kd, often an IC50 or EC50 that approximates it; ≥ and ≤ were set here for values at or beyond the usual limits of such assays; conditions: source organism: Yersinia pestis CO92
[30] = target: HLA-C*06:02; assay: as above; conditions: source organism: Yersinia pestis CO92
[31] = target: HLA-C*07:02; assay: as above; conditions: source organism: Yersinia pestis CO92
[32] = target: HLA-C*05:01; assay: as above; conditions: source organism: Yersinia pestis CO92

Q: Which Kd [1] does the source give for RHDITGFIL here?
A: ≥ 20 µM

Q: And the Kd [2]?
A: ≥ 20 µM

Q: What about the Kd [3] of the same sequence?
A: 0.298 µM

Q: And the Kd [4]?
A: ≥ 20 µM

Q: What about the Kd [5] of the same sequence?
A: ≥ 20 µM

Q: And the Kd [6]?
A: 2.78 µM

Q: What about the Kd [7] of the same sequence?
A: ≥ 20 µM

Q: What about the Kd [8] of the same sequence?
A: ≥ 20 µM

Q: And the Kd [9]?
A: ≥ 20 µM

Q: And the Kd [10]?
A: 0.0235 µM

Q: What about the Kd [11] of the same sequence?
A: 0.513 µM

Q: And the Kd [12]?
A: ≥ 20 µM

Q: And the Kd [13]?
A: ≥ 20 µM

Q: What about the Kd [14] of the same sequence?
A: ≥ 20 µM

Q: What about the Kd [15] of the same sequence?
A: ≥ 20 µM

Q: What about the Kd [16] of the same sequence?
A: ≥ 20 µM

Q: And the Kd [17]?
A: ≥ 20 µM

Q: And the Kd [18]?
A: ≥ 20 µM

Q: And the Kd [19]?
A: ≥ 20 µM

Q: And the Kd [20]?
A: 0.033 µM

Q: YQLEMYHPI was tested. Which Kd [21] did it give?
A: ≥ 20 µM

Q: What about the Kd [22] of the same sequence?
A: ≥ 5 µM

Q: And the Kd [23]?
A: 0.0709 µM

Q: And the Kd [24]?
A: 0.0013 µM

Q: What about the Kd [25] of the same sequence?
A: 3.21 µM

Q: What about the Kd [26] of the same sequence?
A: 0.0008 µM

Q: And the Kd [27]?
A: 15.2 µM

Q: And the Kd [28]?
A: 0.0002 µM

Q: And the Kd [29]?
A: ≥ 20 µM

Q: And the Kd [30]?
A: ≥ 20 µM

Q: And the Kd [31]?
A: 3.75 µM

Q: And the Kd [32]?
A: ≥ 20 µM
